In general, IC50 refers to the concentration that inhibits the measured activity by half. Higher therefore signals weaker potency. What is called kon is the rate constant with which the complex forms. High values mean fast association, low ones slow association.

This note sets out measurements from patent US20140099313A1 (published 2014).

One test addresses T1, human IL-13 wild type (human, UniProt P35225 35-146).
T1 construct: also called h IL-13; hIL-13 wt
Description: competition: human IL-13 to human IL-13Rα2, cell surface-based and ELISA-based RBA. In general terms: In an ELISA, binding on a coated surface is turned into a signal by an enzyme label.

Test [1] addresses T2, human IL-13 variant (R130Q of SEQ ID NO 1) (human, UniProt P35225 35-146).
T2 construct: Recombinant purified protein (Peprotech for immunisation); also called h IL-13v; hIL-13v
Kind of test: SPR (Biacore), captured mAb. As for the experimental part: The BIACORE assay (Biacore, Inc, Piscataway, N.J.) determines the affinity of antibodies with kinetic measurements of on-, off-rate constants. […] All chemicals were obtained from Biacore® AB (Uppsala, Sweden) or otherwise from a different source as described in the text. Approximately 5000 RU of goat anti-mouse IgG, (Fcγ), fragment specific polyclonal antibody (Pierce Biotechnology Inc, Rockford, Ill.) diluted in 10 mM sodium acetate (pH 4.5) was directly immobilized across a CM5 research grade biosensor chip using a standard amine coupling kit according to manufacturer's instructions and procedures at 25 μg/ml. […] Unmodified carboxymethyl dextran without goat anti-mouse IgG in flow cell 1 and 3 was used as the reference surface. For kinetic analysis, rate equations derived from the 1:1 Langmuir binding model were fitted simultaneously to association and dissociation phases of all eight injections (using global fit analysis) with the use of Biaevaluation 4.0.1 software. […] The association and dissociation rate constants, kₒₙ (unit M⁻¹s⁻¹) and koff (unit s⁻¹) were determined under a continuous flow rate of 25 μl/min Rate constants were derived by making kinetic binding measurements at ten different antigen concentrations ranging from 10-200 nM. […] Binding is recorded as a function of time and kinetic rate constants are calculated.
(In general: Surface plasmon resonance follows binding to a sensor surface in real time, without labels.)

T1 sequence (P35225 other isoform, or with tags, fused parts or gaps limits assumed): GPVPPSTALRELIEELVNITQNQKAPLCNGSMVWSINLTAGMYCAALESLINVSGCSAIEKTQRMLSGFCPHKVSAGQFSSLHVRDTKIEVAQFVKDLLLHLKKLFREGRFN
T2 sequence (P35225 35-146 limits assumed, stated change not applied): as the sequence (P35225 other isoform, or with tags, fused parts or gaps limits assumed) above, with R110Q counted along it

B1: 13C5.5 (antibody, human IgG1, V domains shown)
VH: EVTLRESGPGLVKPTQTLTLTCTLYGFSLSTSDMGVDWIRQPPGKGLEWLAHIWWDDVKRYNPALKSRLTISKDTSKNQVVLKLTSVDPVDTATYYCARTVSSGYIYYAMDYWGQGTLVTVSS
VL: DIQMTQSPSSLSASVGDRVTISCRASQDIRNYLNWYQQKPGKAPKLLIFYTSKLHSGVPSRFSGSGSGTDYTLTISSLQPEDIATYYCQQGNTLPLTFGGGTKVEIK
notes: Humanized; also called humanized 13C5
In the test with human IL-13 wild type, B1 yielded an IC50 of 1 to 3 nM.

B2: 1B6 (antibody, V domains shown)
VH: QVQLKESGPGLVAPSQSLSITCTVSGFSLTGYGVNWVRQPPGKGLEWLGMIWGDERIDYNSALKSRLSITKDNSKSQVFLKMNSLQTDDTGRYFCARDGYFPYAMDYWGQGTSVTVSS
VL: NIVLTQSPASLAVSLGQRATISCRASETVDSYGKSYLHWYQQKPGQPPKLLIYLASNLESGVPARFSGSGSRTDFTLIIDPVEADDAATYYCQQNNEGPRTFGGGTKLEIKR
notes: Murine monoclonal, IgG1κ
In turn, B2 came in with a kon in test [1] of 106000 M⁻¹ s⁻¹.
